# Results reported in patent US9650421B2, “Self-assembled nanostructures” (NORTHWESTERN UNIVERSITY, priority 2011, dated 2017).
# No end group written: not given here.
# Experiments:
# nucleic acid = conditions: physiological nucleic acid ligand; cited from earlier work
# [1] = Sedimentation equilibrium analytical ultracentrifugation; type: physicochemical; parameters: partial specific volume: unit not given here
# Method: The coiled-coil formation was then investigated further by analytical ultracentrifugation, which gives access to the absolute molecular weight of the aggregates in solution and subsequently their aggregation number. Equilibrium experiments were conducted at 23° C. and in 50 mM phosphate buffer containing 150 mM NaCl, pH 7.4. Three loading concentrations (18, 30 and 42 μM) were scanned at 230 nm, and sedimented to equilibrium at 20 krpm, 26.6 krpm, 33.3 krpm, and at 39.9 krpm, resulting in 12 scans which were globally fit to multiple models as described previously [Johnson et al., Biophys. J. 36(3): 575-588 (1981); Demeler et al., UltraScan A Comprehensive Data Analysis Software Package for Analytical Ultracentrifugation Experiments. Analytical Ultracentrifugation—Techniques and Methods. Royal Society of Chemistry: 2005]. The most appropriate model was chosen based on visual inspection of the residual run patterns and based on the best statistics. Statistics were evaluated with the Monte Carlo analysis implemented in UltraScan [Demeler et al., Colloid & Polymer Science 286(2): 129-137 (2008)].
# A good fit was obtained when all scans were fitted globally to a single ideal species model (RMSD=7.3631e-03, see FIG. 4). A fixed molecular weight distribution model with 100 molecular weight slots between 10,000 and 50,000 Dalton provided slightly better statistics (RMSD=4.6435e-03) because of the additional degrees of freedom.
# This molecular weight was consistent with a hexameric assembly of 1. […] Since both sedimentation velocity and sedimentation equilibrium experiments only measure the buoyant molecular weight of the sample, errors can be introduced when the partial specific volume is in error. The partial specific volume of 1 was not determined in an independent measurement, but it is reasonable to assume that due to the presence of the PEG2000 chain, the partial specific volume is actually higher than was estimated. The partial specific volume was therefore also fitted using the single species ideal equilibrium model, holding the molecular weight fixed at the theoretical estimate of 39,921 Daltons and determined a partial specific volume of […], which is reasonable considering the presence of the PEG2000 chain.
# [2] = system: double strand DNA fragments; assay: TEM of peptide-linear double strand DNA fragment complexes; type: physicochemical; conditions: for morphology of complexes with short DNA fragments: short ds DNA fragments (150, 300 bp); for morphology of complexes with DNA fragments above 300 bp: template length above 300 bp (600, 1200 bp)
# Method: (§1) A Complex between 1 (80 μM) and ds 150 bp DNA fragment (200 ng) in 20 μl of 25 mM Tris buffer (pH 7.4, 25 mM) B Complex between 2 (80 μM) and ds 150 bp fragment (200 ng) in 20 μl of 25 mM Tris buffer (pH 7.4, 25 mM) C Complex between 1 (80 μM) and ds 300 bp DNA fragment (200 ng) in 20 μl of 25 mM Tris buffer (pH 7.4, 25 mM) D Complex between 2 (80 μM) and ds 300 bp fragment (200 ng) in 20 μl of 25 mM Tris buffer (pH 7.4, 25 mM).
# as §1, with “600” for “150”, “1200” for “300”
# (§2) Complexes between nucleic acid templates and molecules 1, 2 and 3 were prepared under conditions where no more free DNA could be detected by gel electrophoresis and analyzed by transmission electron microscopy (TEM).
# The toroid proportion is insignificant as they are difficult to observe. Furthermore, the length of the complexes was homogenous, and around 706 nm in average. The calculated length of the PBR322 plasmid in a supercoiled conformation is 737 nm, very close to the observed dimensions. A slight shortening of the complexes can be explained by the contraction of DNA in the presence of multivalent counterions. Complexes of short double strand DNA fragments (25-1200 bp) have also been prepared and observed by TEM. (FIG. 8). The expected control of the dimensions of the complexes by template effect clearly obeys different regimes depending both of the length of the template and design of the artificial capsomers.
# 1200 bp DNA fragment = assay: Agarose gel shift assay of DNA binding; conditions: for peptide concentration at which no free DNA can be detected: 200 ng DNA in 20 μl; for peptide molecules for one molecule of DNA at full binding / peptides per base pair at full binding: at 20 μM peptide
# Method: FIG. 6 depicts agarose gel electrophoresis of complexes of 2 and a 1200 bp DNA fragment. Each sample was prepared in a volume of 20 μl Well 1: 200 ng of 1200 bp DNA fragment; Well 2—10: 200 ng of 1200 bp DNA fragment+2 at a concentration of 2.5-5-7.5-10-15-20-25-35-45 μM.
# The ability of compounds 1 and 2 to bind to nucleic acids was assayed by agarose gel shift assays where DNA was mixed with peptides 1 and 2 in different ratio. (FIG. 6). According to these studies at a peptide concentration of 20 μM, no free DNA can be detected in the sample. This corresponds to a ratio of approximately 1600 peptide molecules for one molecule of DNA, or 1.3 peptides per base pair.
# [3] = system: plasmid pBR322 DNA template; assay: TEM of peptide-plasmid DNA complexes; type: physicochemical; conditions: peptide 80 μM, plasmid 200 ng in 20 μl 25 mM Tris buffer pH 7.4
# Method: A Complex between 3 (80 μM) and plasmid pbr322 (200 ng) in 20 μl of 25 mM Tris buffer (pH 7.4, 25 mM) B Complex between 1 (80 μM) and plasmid pbr322 (200 ng) in 20 μl of 25 mM Tris buffer (pH 7.4, 25 mM) C Complex between 2 (80 μM) and plasmid pbr322 (200 ng) in 20 μl of 25 mM Tris buffer (pH 7.4, 25 mM).
# as §2
# [4] = Circular dichroism of the peptide (alpha-helical content); type: physicochemical
# Method: FIG. 3 depicts circular dichroism of peptide 1 at 21 μM at pH 8 in Tris buffer.
# The self-assembly of molecules 1 and 2 into mushroom-shaped nanostructures by coiled-coil formation is an aspect of the disclosure. The self-assembly of the block copolymer 1 was characterized under physiological conditions to probe its propensity to generate […] coiled-coils aggregates.
# [5] = Sedimentation velocity analytical ultracentrifugation; type: physicochemical
# Method: Sedimentation velocity experiments were conducted in the same buffer as the equilibrium experiments. Velocity experiments were performed at 50 krpm and 23° C., scans were taken at 230 nm in intensity mode. The data were analyzed with the 2-dimensional spectrum analysis (2DSA) [Brookes et al., European Biophysics Journal 39(3): 405-414 (2010)] and time invariant noise was subtracted. 2DSA results were further refined with the genetic algorithm analysis (GA) [Brookes et al., Proceedings of the 9th annual conference on Genetic and evolutionary computation 361-368 (2007)] coupled with Monte Carlo (MC) analysis [Demeler et al., UltraScan A Comprehensive Data Analysis Software Package for Analytical Ultracentrifugation Experiments. Analytical Ultracentrifugation—Techniques and Methods. Royal Society of Chemistry: 2005]. Sedimentation coefficient distributions were calculated with the van Holde-Weischet analysis [Demeler et al., Anal. Biochem. 335(2): 279-288 (2004)].
# Weight-average sedimentation coefficients determined with the 2DSA-MC and the GA-MC analysis were both 2.26 s.
# [6] = fixed molecular weight distribution model, Monte Carlo analysis
Compound,binding constant to nucleic acid (nucleic acid),"molecular weight of the species in solution, single ideal species fit ([1]; 23° C., 50 mM phosphate buffer, 150 mM NaCl, pH 7.4, 18, 30 and 42 μM) [kDa]",oligomeric state in solution ([1]; concentrations between 18 and 42 μM),"partial specific volume ([1]; fitted with single species ideal equilibrium model, molecular weight fixed at 39,921 Daltons)","Z-average molecular weight [1, 6] [kDa]","number-average molecular weight [1, 6] [kDa]","weight-average molecular weight [1, 6] [kDa]",morphology of complexes with short DNA fragments [2],morphology of complexes with DNA fragments above 300 bp [2],peptide concentration at which no free DNA can be detected (1200 bp DNA fragment) [µM],peptide molecules for one molecule of DNA at full binding (1200 bp DNA fragment),peptides per base pair at full binding (1200 bp DNA fragment),morphology of complexes with plasmid pBR322 [3],"alpha-helical content ([4]; before addition of DNA, 21 μM, pH 8, Tris buffer) [%]",alpha-helical content ([4]; upon addition of DNA) [%],weight-average sedimentation coefficient ([5]; 2DSA-MC and GA-MC analysis) [s],frictional ratio ([5]; GA-MC analysis),molecular weight of single species (94% of the signal) ([5]; GA-MC analysis) [kDa],"weight-average sedimentation coefficient ([5]; van Holde-Weischet analysis, 50 krpm, 23° C.) [s]",average length of complexes with plasmid pBR322 [3]
NCCCNCCCCNCCCN [spermine],micromolar range,,,,,,,,,,,,,,,,,,,
peptide 1: Coiled-coil peptide (SEQ ID NO: 1) with C-terminal lysine-linked spermine DNA binding unit and PEG2000 carboxylic acid coupled to N-terminus ({PEG2000 carboxylic acid}-REGVAKALRAVANALHYNASALEEVADALQKVKM; not fully specified (C-terminus)),,33.38,hexamer or heptameric oligomer,0.809,36.28,32.34,34.67,rodlike morphology and having predominantly the length of the DNA template,mixture of the expected filamentous complexes of different length and toroidal complexes,20,approximately 1600,1.3,"mixture of rods, branched and toroidal complexes",36,53,2.26,1.370,33.74,2.28,
"2: Coiled-coil peptide (SEQ ID NO: 1) with spermine unit and mPEG5000-maleimide conjugated to an N-terminal cysteine residue ({C(mPEG5000-maleimide)}-REGVAKALRAVANALHYNASALEEVADALQKVKM; also: spermine unit, site not given here) [compound 2]",,,,,,,,rodlike morphology and having predominantly the length of the DNA template,homogenous rods having predominantly a length corresponding to the DNA template folded in two,20,approximately 1600,1.3,only filamentous complexes were observed,,,,,,,around 706 nm
